According to article PMC3817697, “Building a pseudo-atomic model of the anaphase-promoting complex” (Acta Crystallographica Section D: Biological Crystallography, 2013):

B1: Cdc16 (Cut9) subunit of recombinant S. pombe APC/C (natural protein, UniProt P41889 1-671, looked up)
chain: MVVKRTQTDSRMQSTPGNHNHPDAHANAAYMTPPSMGALNANNSNSQLSTLTISPMTYLANNTSTDGSFLKERNAQNTDSLSREDYLRLWRHDALMQQQYKCAAFVGEKVLDITGNPNDAFWLAQVYCCTGDYARAKCLLTKEDLYNRSSACRYLAAFCLVKLYDWQGALNLLGETNPFRKDEKNANKLLMQDGGIKLEASMCYLRGQVYTNLSNFDRAKECYKEALMVDAKCYEAFDQLVSNHLLTADEEWDLVLKLNYSTYSKEDAAFLRSLYMLKLNKTSHEDELRRAEDYLSSINGLEKSSDLLLCKADTLFVRSRFIDVLAITTKILEIDPYNLDVYPLHLASLHESGEKNKLYLISNDLVDRHPEKAVTWLAVGIYYLCVNKISEARRYFSKSSTMDPQFGPAWIGFAHSFAIEGEHDQAISAYTTAARLFQGTHLPYLFLGMQHMQLGNILLANEYLQSSYALFQYDPLLLNELGVVAFNKSDMQTAINHFQNALLLVKKTQSNEKPWAATWANLGHAYRKLKMYDAAIDALNQGLLLSTNDANVHTAIALVYLHKKIPGLAITHLHESLAISPNEIMASDLLKRALEENSLTSGFLNSKYVFEDEVSEYMQQSNLNTSDKSMSMEDQSGKVTESVNDRTQVLYADSRSEMMMDDIEGNVSEQR
notes: Cdc16 (S. pombe name Cut9; human Apc6), TPR subunit of the S. pombe anaphase-promoting complex; Subunit within the recombinant S. pombe APC/C used for cryo-EM; the insect-cell MultiBac system is described only for the budding-yeast APC/C; also called Apc6; source: recombinant S. pombe APC/C
B2: Cdc26 (Hcn1) subunit of recombinant S. pombe APC/C (natural protein, UniProt O13916 1-80, looked up)
chain: MLRRNPTAIQITAEDVLAYDEEKLRQTLDSESTTEEALQKNEESTRLSPEKKKIIRERRIGITQIFDSSMHPSQGGAAQS
notes: Cdc26 (S. pombe name Hcn1), TPR accessory subunit of the S. pombe anaphase-promoting complex; Subunit within the recombinant S. pombe APC/C used for cryo-EM; source: recombinant S. pombe APC/C
B3: Cdc23 (Cut23) subunit of recombinant S. pombe APC/C (natural protein, UniProt O94556 1-565, looked up)
chain: MTVSLNTMMGVDGLEDQEQLREIRNCLLKCISECSERGLVYAVRWAAEMLNGMNPIEMEHIPFSSTPTGEFDLDPDMANEKLLEVEEKNIYLLAKSYFDCKEFERAAYTLQNCKSSKSIFLRLYSKYLAGEKKSEEENETLLNTNLTLSSTNREFYYISEVLESLHYQGNKDPYLLYLSGVVYRKRKQDSKAIDFLKSCVLKAPFFWSAWLELSLSIDSLETLTTVVSQLPSTHIMTKIFYVYASHELHQVNSSAYEKLAEAEIIFPNSRYLKTQRALLTYDSRDFDEAESLFENILTNDPYRLDDMDTYSNVLFVLENKSKLGFLAQVASSIDKFRPETCSIIGNYYSLLSEHEKAVTYFKRALQLNRNYLSAWTLMGHEYVELKNTHAAIESYRLAVDVNRKDYRAWYGLGQTYEVLDMHFYALYYFQRATALRPYDQRMWQALGNCYEKIDRPQEAIKSYKRALLGSQTNSSILVRLGNLYEELQDLNSAASMYKQCIKTEETEISPETIKARIWLARWELGKKNYREAELYLSEVLNGDLELEEAKALLRELRSRMEHSYD
notes: Cdc23 (S. pombe name Cut23; human Apc8), TPR subunit of the S. pombe anaphase-promoting complex; Subunit within the recombinant S. pombe APC/C used for cryo-EM; also called Apc8; source: recombinant S. pombe APC/C
B4: Cdc27 (Nuc2) subunit of recombinant S. pombe APC/C (natural protein, UniProt P10505 1-665, looked up)
chain: MTDRLKCLIWYCIDNQNYDNSIFYSERLHAIEDSNESLYLLAYSHFLNLDYNIVYDLLDRVISHVPCTYLFARTSLILGRYKQGISAVEACRSNWRSIQPNINDSISSRGHPDASCMLDVLGTMYKKAGFLKKATDCFVEAVSINPYNFSAFQNLTAIGVPLDANNVFVIPPYLTAMKGFEKSQTNATASVPEPSFLKKSKESSSSSNKFSVSESIANSYSNSSISAFTKWFDRVDASELPGSEKERHQSLKLQSQSQTSKNLLAFNDAQKADSNNRDTSLKSHFVEPRTQALRPGARLTYKLREARSSKRGESTPQSFREEDNNLMELLKLFGKGVYLLAQYKLREALNCFQSLPIEQQNTPFVLAKLGITYFELVDYEKSEEVFQKLRDLSPSRVKDMEVFSTALWHLQKSVPLSYLAHETLETNPYSPESWCILANCFSLQREHSQALKCINRAIQLDPTFEYAYTLQGHEHSANEEYEKSKTSFRKAIRVNVRHYNAWYGLGMVYLKTGRNDQADFHFQRAAEINPNNSVLITCIGMIYERCKDYKKALDFYDRACKLDEKSSLARFKKAKVLILLHDHDKALVELEQLKAIAPDEANVHFLLGKIFKQMRKKNLALKHFTIAWNLDGKATHIIKESIENLDIPEENLLTETGEIYRNLET
notes: Cdc27 (S. pombe name Nuc2; human Apc3), TPR subunit of the S. pombe anaphase-promoting complex; Subunit within the recombinant S. pombe APC/C used for cryo-EM; also called Apc3; source: recombinant S. pombe APC/C

Key:
[1] = molecular target: the molecule itself; assay: cryo-EM structure; recombinant S. pombe APC/C, single-particle cryo-EM, about 12 Å, still being refined; atomic models of subunits docked into the density and refined as rigid bodies with URO
[2] = molecular target: B1; assay: as above; conditions: both partners purified

Binder	binding result [1]	binding result [2]
B1	binds	–
B2	–	binds
B3	binds	binds
B4	binds	binds
